Assay [1] addresses T1, ubiquitin mutein 200053.
T1 construct: also called Affilin-200053
As to the kind of experiment: SPR (Biacore 3000), ligand multimer immobilised, ubiquitin mutein in solution. On the procedure: (§1) Purified proteins were immobilized via C-terminal Cysteine on a CM-5 sensor chip (GE Healthcare) using NHS/EDC after PDEA activation with a Biacore 3000 system (GE Healthcare). The chip was equilibrated with SPR running buffer (PBS 0.05% Tween pH 7.3). Soluble ubiquitin muteins (Affilin® proteins) applied to the chip in serial dilutions (different concentrations) with a flow rate of 30 μl/min. The association was performed for 120 seconds and the dissociation for 120 seconds. After each run, the chip surface was regenerated with 30 μl regeneration buffer (10 mM glycine pH 2.0) and equilibrated with running buffer. Affilin® proteins accumulated on the surface increasing the refractive index. This change in the refractive index was measured in real time and plotted as response or resonance units versus time.
(§2) Binding studies were carried out using the BIAcore 3000 (GE Healthcare); data evaluation was operated via the BIAevaluation 3.0 software, provided by the manufacturer, by the use of the Langmuir 1:1 model (RI=0). Evaluated dissociation constants (KD) were standardized against the immobilized protein and indicated. Shown is the change in refractive index measured in real time and plotted as response or resonance unit [RU] versus time [sec] (see Table 2).

Assay [2] addresses T2, ubiquitin mutein 77404.
T2 construct: also called Affilin-77404
The assay is described as above. On the procedure:
as §1, §2

The target of assay [3] is T3, ubiquitin mutein 211883.
T3 construct: also called Affilin-211883
Described as above. The method, then: as §1, §2

The target of assay [4] is T1, ubiquitin mutein 200053. As to the kind of experiment: SPR (Biacore 3000), ligand immobilised via C-terminal Cys on CM-5, ubiquitin mutein in solution, Langmuir 1:1. The method, then:
as §1, §2
A general note: SPR reads the build-up and loss of mass on a sensor chip optically.

For assay [5], the target named is T2, ubiquitin mutein 77404. Described as above. On the procedure: as §1, §2
Assay [6] has as its target T3, ubiquitin mutein 211883. The description is as above. The method, then: as §1, §2
The next assay has as its target T4, ubiquitin mutein 139819.
T4 construct: Monomer with an insertion of 6 amino acids between positions 9 and 10 of ubiquitin; also called Affilin-139819
The assay is described as above. On the procedure:
as §1, §2

Assay [7] concerns the target T2, ubiquitin mutein 77404. As to the kind of experiment: SPR (Biacore 3000), ligand immobilised, ubiquitin mutein in solution; Table 1 run; ligand on the chip, Affilin-77404 in solution. On the procedure: as §1, §2
The target of assay [8] is T2, ubiquitin mutein 77404. As to the kind of experiment: SPR; SEQ ID NO: 2, unmutated. On the procedure: as §1, §2
Assay [9] deals with T2, ubiquitin mutein 77404. As to the kind of experiment: SPR; point mutant M23E. The method, then: as §1, §2
Assay [10] deals with T2, ubiquitin mutein 77404. As to the kind of experiment: SPR; point mutant M2K. On the procedure: as §1, §2
For assay [11], the target named is T2, ubiquitin mutein 77404. As to the kind of experiment: SPR; point mutant D3F. The method, then:
as §1, §2

Assay [12] concerns the target T2, ubiquitin mutein 77404. As to the kind of experiment: SPR; point mutant F5E. On the procedure: as §1, §2
Assay [13] addresses T2, ubiquitin mutein 77404. As to the kind of experiment: SPR; point mutant K25R. The method, then: as §1, §2
The target of assay [14] is T2, ubiquitin mutein 77404. As to the kind of experiment: SPR; point mutant A16H. On the procedure:
as §1, §2

Assay [15] concerns the target T2, ubiquitin mutein 77404. As to the kind of experiment: SPR; point mutant Y8Q. The method, then: as §1, §2

Substitutions are numbered along the chain they refer to. Some results are limits rather than exact numbers.

The term Kd denotes the constant that tells how readily two partners part at equilibrium. A low value points to tighter binding.

B1: SEQ21 dimer (215996) (designed binder)
chain: NAARSDEAQYSAWAEIEALPNLTEMQKDQFIWSLMFDPSVSKEVLGEAQKLNDSQAPKQAPKVDAKFDQAPKVDAKFDNAARSDEAQYSAWAEIEALPNLTEMQKDQFIWSLMFDPSVSKEVLGEAQKLNDSQAPKC
On to B1, for which the Kd with ubiquitin mutein 200053 [1] was 5.5 nM; with ubiquitin mutein 77404 [2], 0.16 nM; in the assay with ubiquitin mutein 211883 [3] it was 78.1 nM.

B2: SEQ1 dimer (215999) (designed binder)
chain: B1 chain with R4M, S5D, E7F, R82M, S83D, E85F
Turning to B2, the Kd with ubiquitin mutein 77404 [2] was found to be 0.1 nM; with ubiquitin mutein 211883 [3] it was 55.6 nM.

B3: affinity ligand 187029 (designed binder)
chain: NAAMDDFAQYSAWAEIEALPNLTEMQKDQFIWSLMFDPSVSKEVLGEAQKLNDSQAPK
notes: Artificial mosaic protein of Protein A-like structure
Take B3: the Kd in the assay with ubiquitin mutein 200053 [4] is 5.9 nM; with ubiquitin mutein 77404 [5], 1.3 nM; in the assay with ubiquitin mutein 211883 [6] it was 52.9 nM; with ubiquitin mutein 139819 it was 75.5 nM; with ubiquitin mutein 77404 [7], less than 0.5 nM.

B4: affinity ligand 187028 (designed binder)
chain: B3 chain with M4R, D5S, F7E
For B4, the Kd with ubiquitin mutein 200053 [4] stood at 2.5 nM; in the assay with ubiquitin mutein 77404 [5] it was 0.6 nM; with ubiquitin mutein 211883 [6] it was 66.2 nM; with ubiquitin mutein 139819, 47.3 nM.

B5: SEQ21 trimer (215997) (designed binder)
chain: NAARSDEAQYSAWAEIEALPNLTEMQKDQFIWSLMFDPSVSKEVLGEAQKLNDSQAPKQAPKVDAKFDQAPKVDAKFDNAARSDEAQYSAWAEIEALPNLTEMQKDQFIWSLMFDPSVSKEVLGEAQKLNDSQAPKQAPKVDAKFDQAPKVDAKFDNAARSDEAQYSAWAEIEALPNLTEMQKDQFIWSLMFDPSVSKEVLGEAQKLNDSQAPKC
On to B5, for which the results for the Kd with ubiquitin mutein 200053 [1], in the assay with ubiquitin mutein 77404 [2] and with ubiquitin mutein 211883 [3] were 8.5 nM, 0.4 nM and 73.4 nM, respectively.

B6: SEQ1 trimer (216000) (designed binder)
chain: B5 chain with R4M, S5D, E7F, R82M, S83D, E85F, R160M, S161D, E163F
Regarding B6, the results for the Kd with ubiquitin mutein 200053 [1], in the assay with ubiquitin mutein 77404 [2] and with ubiquitin mutein 211883 [3] were 6.5 nM, 0.3 nM and 56.2 nM, respectively.

B7: SEQ 21 tetramer (215998) (designed binder)
chain: NAARSDEAQYSAWAEIEALPNLTEMQKDQFIWSLMFDPSVSKEVLGEAQKLNDSQAPKQAPKVDAKFDQAPKVDAKFDNAARSDEAQYSAWAEIEALPNLTEMQKDQFIWSLMFDPSVSKEVLGEAQKLNDSQAPKQAPKVDAKFDQAPKVDAKFDNAARSDEAQYSAWAEIEALPNLTEMQKDQFIWSLMFDPSVSKEVLGEAQKLNDSQAPKQAPKVDAKFDQAPKVDAKFDNAARSDEAQYSAWAEIEALPNLTEMQKDQFIWSLMFDPSVSKEVLGEAQKLNDSQAPKC
On to B7, for which the Kd with ubiquitin mutein 200053 [1] came out at 8.3 nM; with ubiquitin mutein 77404 [2], 0.05 nM; with ubiquitin mutein 211883 [3] it was 95.7 nM.

B8: SEQ1 tetramer (216001) (designed binder)
chain: NAAMDDFAQYSAWAEIEALPNLTEMQKDQFIWSLMFDPSVSKEVLGEAQKLNDSQAPKQAPKVDAKFDQAPKVDAKFDNAAMDDFAQYSAWAEIEALPNLTEMQKDQFIWSLMFDPSVSKEVLGEAQKLNDSQAPKQAPKVDAKFDQAPKVDAKFDNAAMDDFAQYSAWAEIEALPNLTEMQKDQFIWSLMFDPSVSKEVLGEAQKLNDSQAPKQAPKVDAKFDQAPKVDAKFDNAAMDDFAQYSAWAEIEALPNLTEMQKDQFIWSLMFDPSVSKEVLGEAQKLNDSQAPKC
For the molecule B8, the Kd turned out to be 6.5 nM with ubiquitin mutein 200053 [1], 0.6 nM in the assay with ubiquitin mutein 77404 [2] and 93.1 nM with ubiquitin mutein 211883 [3].

B9: SEQ ID NO: 2 (designed binder)
chain: AMDDFAQYSAWAEIEALPNLTEMQKDQFIWSLMFDPSVSKEVLGEAQKLNDSQAPK
notes: also called 187029 del2N
On to B9, for which, in the assay with ubiquitin mutein 77404 [8], the Kd is less than 0.5 nM.

B10: SEQ ID NO: 2_M23E (designed binder)
chain: B9 chain with M23E
In the assay with ubiquitin mutein 77404 [9], B10 yielded a Kd of less than 0.5 nM.

B11: SEQ ID NO: 2_M2K (designed binder)
chain: B9 chain with M2K
The molecule B11 returned a dissociation constant Kd with ubiquitin mutein 77404 [10] of less than 0.5 nM.

B12: SEQ ID NO: 2_D3F (designed binder)
chain: B9 chain with D3F
With B12, the Kd in the assay with ubiquitin mutein 77404 [11] was less than 0.5 nM.

B13: SEQ ID NO: 2_F5E (designed binder)
chain: B9 chain with F5E
In the assay with ubiquitin mutein 77404 [12], B13 had a Kd of less than 0.5 nM.

B14: SEQ ID NO: 2_K25R (designed binder)
chain: B9 chain with K25R
For B14, in the assay with ubiquitin mutein 77404 [13], the Kd was less than 0.5 nM.

B15: SEQ ID NO: 2_A16H (designed binder)
chain: B9 chain with A16H
B15 yielded a Kd with ubiquitin mutein 77404 [14] of less than 0.5 nM.

B16: SEQ ID NO: 2_Y8Q (designed binder)
chain: B9 chain with Y8Q
Regarding B16, the Kd with ubiquitin mutein 77404 [15] was less than 0.5 nM.

The record behind these values is patent US20240309056A1 (NAVIGO PROTEINS, published 2024).
